# Results: IntAct's records for PubMed 35512704
# B1: Speckle-type POZ protein (Homo sapiens), O43791 (parent)
# chain: MSRVPSPPPPAEMSSGPVAESWCYTQIKVVKFSYMWTINNFSFCREEMGEVIKSSTFSSGANDKLKWCLRVNPKGLDEESKDYLSLYLLLVSCPKSEVRAKFKFSILNAKGEETKAMESQRAYRFVQGKDWGFKKFIRRDFLLDEANGLLPDDKLTLFCEVSVVQDSVNISGQNTMNMVKVPECRLADELGGLWENSRFTDCCLCVAGQEFQAHKAILAARSPVFSAMFEHEMEESKKNRVEINDVEPEVFKEMMCFIYTGKAPNLDKMADDLLAAADKYALERLKVMCEDALCSNLSVENAAEILILADLHSADQLKTQAVDFINYHASDVLETSGWKSMVVSHPHLVAEAYRSLASAQCPFLGPPRKRLKQS
# partner: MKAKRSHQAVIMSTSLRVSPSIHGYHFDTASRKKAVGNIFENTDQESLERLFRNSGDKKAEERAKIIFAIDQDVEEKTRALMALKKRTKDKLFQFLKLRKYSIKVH
# B2: Speckle-type POZ protein (Homo sapiens), O43791 (parent)
# chain: B1 chain
# partner: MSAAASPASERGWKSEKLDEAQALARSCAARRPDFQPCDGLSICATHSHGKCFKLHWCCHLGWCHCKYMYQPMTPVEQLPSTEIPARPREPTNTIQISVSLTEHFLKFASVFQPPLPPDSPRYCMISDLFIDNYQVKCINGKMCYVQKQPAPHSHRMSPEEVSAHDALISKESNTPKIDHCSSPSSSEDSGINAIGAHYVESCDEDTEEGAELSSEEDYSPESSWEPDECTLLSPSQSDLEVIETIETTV
# B3: Speckle-type POZ protein (Homo sapiens), O43791 (parent)
# chain: B1 chain
# partner: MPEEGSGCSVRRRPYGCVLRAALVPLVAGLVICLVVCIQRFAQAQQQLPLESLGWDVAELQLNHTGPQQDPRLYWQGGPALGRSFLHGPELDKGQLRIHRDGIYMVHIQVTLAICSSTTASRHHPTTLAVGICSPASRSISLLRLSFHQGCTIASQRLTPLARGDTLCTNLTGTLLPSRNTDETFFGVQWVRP
# Variants of: B1
# Details: with tcim_human TCIM
row,Variant,effect of a mutation on the interaction
1,MSRVPSPPPPAEMSSGPVAESWCYTQIKVVKFSYMWTINNFSFCREEMGEVIKSSTFSSGANDKLKWCLRVNPKGLDEESKDYLSLCLLLVSCPKSEVRAKFKFSILNAKGEETKAMESQRAYRFVQGKDWGFKKFIRRDFLLDEANGLLPDDKLTLFCEVSVVQDSVNISGQNTMNMVKVPECRLADELGGLWENSRFTDCCLCVAGQEFQAHKAILAARSPVFSAMFEHEMEESKKNRVEINDVEPEVFKEMMCFIYTGKAPNLDKMADDLLAAADKYALERLKVMCEDALCSNLSVENAAEILILADLHSADQLKTQAVDFINYHASDVLETSGWKSMVVSHPHLVAEAYRSLASAQCPFLGPPRKRLKQS [Y87C],with no effect

# Variants of: B1
# Details: with tcim_human TCIM
# Remark: another data set of the same source
row,Variant,effect of a mutation on the interaction
1,MSRVPSPPPPAEMSSGPVAESWCYTQIKVVKFSYMWTINNFSFCREEMGEVIKSSTFSSGANDKLKWCLRVNPKGLDEESKDYLSLYLLLVSCPKSEVRAKFKFSILNAKGEETKAMESQRAYRFVQGKDWGVKKFIRRDFLLDEANGLLPDDKLTLFCEVSVVQDSVNISGQNTMNMVKVPECRLADELGGLWENSRFTDCCLCVAGQEFQAHKAILAARSPVFSAMFEHEMEESKKNRVEINDVEPEVFKEMMCFIYTGKAPNLDKMADDLLAAADKYALERLKVMCEDALCSNLSVENAAEILILADLHSADQLKTQAVDFINYHASDVLETSGWKSMVVSHPHLVAEAYRSLASAQCPFLGPPRKRLKQS [F133V],with no effect

# Variants of: B1
# Details: with tcim_human TCIM
# Remark: another data set of the same source
row,Variant,effect of a mutation on the interaction
1,MSRVPSPPPPAEMSSGPVAESWCYTQIKVVKFSYMWTINNFSFCREEMGEVIKSSTFSSGANDKLKWCLRVNPKGLDEESKDYLSLYLLLVSCPKSEVRAKFKFSILNAKGEETKAMESQRAYRFVQGKDWGLKKFIRRDFLLDEANGLLPDDKLTLFCEVSVVQDSVNISGQNTMNMVKVPECRLADELGGLWENSRFTDCCLCVAGQEFQAHKAILAARSPVFSAMFEHEMEESKKNRVEINDVEPEVFKEMMCFIYTGKAPNLDKMADDLLAAADKYALERLKVMCEDALCSNLSVENAAEILILADLHSADQLKTQAVDFINYHASDVLETSGWKSMVVSHPHLVAEAYRSLASAQCPFLGPPRKRLKQS [F133L],with no effect

# Variants of: B1
# Details: with tcim_human TCIM
# Remark: another data set of the same source
row,Variant,effect of a mutation on the interaction
1,MSRVPSPPPPAEMSSGPVAESWCYTQIKVVKFSYMWTINNFSFCREEMGEVIKSSTFSSGANDKLKWCLRVNPKGLDEESKDYLSLYLLLVSCPKSEVRAKCKFSILNAKGEETKAMESQRAYRFVQGKDWGFKKFIRRDFLLDEANGLLPDDKLTLFCEVSVVQDSVNISGQNTMNMVKVPECRLADELGGLWENSRFTDCCLCVAGQEFQAHKAILAARSPVFSAMFEHEMEESKKNRVEINDVEPEVFKEMMCFIYTGKAPNLDKMADDLLAAADKYALERLKVMCEDALCSNLSVENAAEILILADLHSADQLKTQAVDFINYHASDVLETSGWKSMVVSHPHLVAEAYRSLASAQCPFLGPPRKRLKQS [F102C],with no effect

# Variants of: B2
# Details: with cc070_human C3orf70, A6NLC5
row,Variant,effect of a mutation on the interaction
1,MSRVPSPPPPAEMSSGPVAESWCYTQIKVVKFSYMWTINNFSFCREEMGEVIKSSTFSSGANDKLKWCLRVNPKGLDEESKDYLSLYLLLVSCPKSEVRAKFKFSILNAKGEETKAMESQRAYRFVQGKDWGVKKFIRRDFLLDEANGLLPDDKLTLFCEVSVVQDSVNISGQNTMNMVKVPECRLADELGGLWENSRFTDCCLCVAGQEFQAHKAILAARSPVFSAMFEHEMEESKKNRVEINDVEPEVFKEMMCFIYTGKAPNLDKMADDLLAAADKYALERLKVMCEDALCSNLSVENAAEILILADLHSADQLKTQAVDFINYHASDVLETSGWKSMVVSHPHLVAEAYRSLASAQCPFLGPPRKRLKQS [F133V],with no effect

# Variants of: B2
# Details: with cc070_human C3orf70, A6NLC5
# Remark: another data set of the same source
row,Variant,effect of a mutation on the interaction
1,MSRVPSPPPPAEMSSGPVAESWCYTQIKVVKFSYMWTINNFSFCREEMGEVIKSSTFSSGANDKLKWCLRVNPKGLDEESKDYLSLCLLLVSCPKSEVRAKFKFSILNAKGEETKAMESQRAYRFVQGKDWGFKKFIRRDFLLDEANGLLPDDKLTLFCEVSVVQDSVNISGQNTMNMVKVPECRLADELGGLWENSRFTDCCLCVAGQEFQAHKAILAARSPVFSAMFEHEMEESKKNRVEINDVEPEVFKEMMCFIYTGKAPNLDKMADDLLAAADKYALERLKVMCEDALCSNLSVENAAEILILADLHSADQLKTQAVDFINYHASDVLETSGWKSMVVSHPHLVAEAYRSLASAQCPFLGPPRKRLKQS [Y87C],with no effect

# Variants of: B3
# Details: with cd70_human CD70, P32970
row,Variant,effect of a mutation on the interaction
1,MSRVPSPPPPAEMSSGPVAESWCYTQIKVVKFSYMWTINNFSFCREEMGEVIKSSTFSSGANDKLKWCLRVNPKGLDEESKDYLSLYLLLVSCPKSEVRAKFKFSILNAKGEETKAMESQRAYRFVQGKDWGLKKFIRRDFLLDEANGLLPDDKLTLFCEVSVVQDSVNISGQNTMNMVKVPECRLADELGGLWENSRFTDCCLCVAGQEFQAHKAILAARSPVFSAMFEHEMEESKKNRVEINDVEPEVFKEMMCFIYTGKAPNLDKMADDLLAAADKYALERLKVMCEDALCSNLSVENAAEILILADLHSADQLKTQAVDFINYHASDVLETSGWKSMVVSHPHLVAEAYRSLASAQCPFLGPPRKRLKQS [F133L],with no effect

# Variants of: B3
# Details: with cd70_human CD70, P32970
# Remark: another data set of the same source
row,Variant,effect of a mutation on the interaction
1,MSRVPSPPPPAEMSSGPVAESWCYTQIKVVKFSYMWTINNFSFCREEMGEVIKSSTFSSGANDKLKWCLRVNPKGLDEESKDYLSLYLLLVSCPKSEVRAKCKFSILNAKGEETKAMESQRAYRFVQGKDWGFKKFIRRDFLLDEANGLLPDDKLTLFCEVSVVQDSVNISGQNTMNMVKVPECRLADELGGLWENSRFTDCCLCVAGQEFQAHKAILAARSPVFSAMFEHEMEESKKNRVEINDVEPEVFKEMMCFIYTGKAPNLDKMADDLLAAADKYALERLKVMCEDALCSNLSVENAAEILILADLHSADQLKTQAVDFINYHASDVLETSGWKSMVVSHPHLVAEAYRSLASAQCPFLGPPRKRLKQS [F102C],with no effect
